Measured values from US20260274985A1 (MYTHIC THERAPEUTICS, published 2026).
Where a chain is given by its changes, count along the chain named.

How the values were obtained:
[1] = target: TROP2 on TROP2-positive NCI-H1975 cells (human) (UniProt P09758); experiment: cell-based or functional assay; conditions: scale: % greater cytotoxicity compared to WT datopotamab
[2] = target: T1, Human TROP2 Protein, His Tag (Acro Biosystems) (human, UniProt P09758 27-274); experiment: BLI (Octet) [1/2]
T1 construct: Bought antigen used at 50 nM in the Octet screen; also called TACSTD2; not shown: His tag
T1 sequence (looked up): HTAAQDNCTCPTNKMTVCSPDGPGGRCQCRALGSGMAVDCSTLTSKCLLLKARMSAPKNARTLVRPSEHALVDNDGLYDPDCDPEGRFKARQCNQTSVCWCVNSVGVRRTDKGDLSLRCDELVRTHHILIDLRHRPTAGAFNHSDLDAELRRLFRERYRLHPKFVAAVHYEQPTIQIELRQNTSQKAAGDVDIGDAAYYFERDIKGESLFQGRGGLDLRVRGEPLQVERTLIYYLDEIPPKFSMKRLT
How it was run: (§1)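 Antibody variants from day-4 expression supernatants, diluted in 1×PBST pH 7.4 by expression level, captured on anti-human Fc tips. Association with 50 nM human TROP2-His in PBST pH 7.4 for 120 sec; dissociation in PBST pH 7.4 or pH 5.4 for 300 sec. Curves examined for koff at each pH versus parent antibody.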

[3] = target: T2, Human TROP2 Protein, His Tag, Acro Biosystems (human, UniProt P09758 27-274); experiment: Octet (BLI)
T2 construct: Bought protein; not shown: His tag
T2 sequence: T1 sequence (looked up)

[4] = target: T3, TROP2 on TROP2-positive NCI-H1975 cells (human, UniProt P09758 27-323); experiment: binding to NCI-H1975 cells at pH 6.4, maximal MFI
T3 construct: Endogenous TROP2 of the human NCI-H1975 cell line; also called TACSTD2
T3 sequence: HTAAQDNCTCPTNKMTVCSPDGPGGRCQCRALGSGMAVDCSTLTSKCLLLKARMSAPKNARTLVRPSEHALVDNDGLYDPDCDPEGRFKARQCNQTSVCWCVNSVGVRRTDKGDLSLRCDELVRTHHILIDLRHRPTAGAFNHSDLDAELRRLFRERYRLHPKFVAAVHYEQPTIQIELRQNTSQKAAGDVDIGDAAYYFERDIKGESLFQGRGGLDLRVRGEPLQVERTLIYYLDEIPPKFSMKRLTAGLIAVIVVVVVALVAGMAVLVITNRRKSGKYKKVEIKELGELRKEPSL

[5] = target: T3, TROP2 on TROP2-positive NCI-H1975 cells; experiment: cell-based or functional assay
[6] = target: T3, TROP2 on TROP2-positive NCI-H1975 cells; experiment: cell-based or functional assay; remark: listed apart in the source
[7] = target: T4, Human TROP2 Protein, His Tag (Acro Biosystems) (human, UniProt P09758 27-274); experiment: BLI (Octet), Ab on anti-human Fc sensor, 50 nM TROP2-His; 1 = pH dependent
T4 construct: Bought protein; not shown: His tag
T4 sequence (looked up): T1 sequence (looked up)
Method: After allowing for four days of protein expression, cell culture supernatants were collected, quantified by SDS-PAGE analysis (DNS), and the pH dependence of the variant was evaluated using biolayer interferometry (BLI) on an Octet RED 96e instrument. Briefly, cell culture supernatants were diluted based on qualitative expression level of the variant determined by visual examination of SDS-PAGE gels, 5 μL of cell culture supernatant was diluted into 195 μL of 1×PBST, pH 7.4 for high expressors, 25 μL of cell culture supernatant was diluted into 175 μL of 1×PBST, pH 7.4 for medium expressors and 100 μL of cell culture supernatant was diluted into 100 μL of 1×PBST, pH 7.4 for low expressors for loading onto the sensor tips. The resulting diluted supernatants were then captured on an anti-human Fc sensor (Forte Bio). A baseline was established using 1×PBST (50 mM Potassium Phosphate Buffer+150 mM NaCl+0.05% Tween 20) pH 7.4, and the sensor was associated with 50 nM of TROP2 (Human TROP2 Protein, His Tag, Acro Biosystems) in 1×PBST pH 7.4 for 120 sec to generate an association curve. In the dissociation phase, the antibody-antigen complex on the sensor was exposed to 1×PBST pH 7.4 or pH 5.4, for 300 sec. […]

[8] = target: T5, Human TROP2 Protein, His Tag (human, UniProt P09758 27-274); experiment: BLI (Octet) [1/2]
T5 construct: Bought protein; also called TACSTD2; not shown: His tag
T5 sequence (looked up): T1 sequence (looked up)
How it was run: as §1

[9] = target: T5, Human TROP2 Protein, His Tag; experiment: BLI (Octet), IgG on anti-human Fc sensor, 50 nM human TROP2-His; legend: 1 = pH dependent
[10] = target: T6, Human TROP2 Protein, His Tag (Acro Biosystems) (human, UniProt P09758 27-274); experiment: BLI (Octet)
T6 construct: not shown: His tag
T6 sequence (looked up): T1 sequence (looked up)

[11] = target: T6, Human TROP2 Protein, His Tag (Acro …); experiment: BLI (Octet); remark: listed apart in the source
[12] = target: T7, Human TROP2 Protein, His Tag (Acro Biosystems) (human, UniProt P09758 27-274); experiment: BLI (Octet)
T7 construct: Bought protein; also called TACSTD2; not shown: His tag
T7 sequence: T1 sequence (looked up)

[13] = target: T8, Human TROP2 Protein, His Tag (Acro Biosystems) (human, UniProt P09758 27-274); experiment: BLI (Octet) [1/2]
T8 construct: also called TACSTD2; not shown: His tag
T8 sequence (looked up): T1 sequence (looked up)

B1: MYT11741 (antibody, V domains shown)
VH: QVQLQESGPGLVKPSETLSLTCTVSGGSISSYGVHWIRQPPGKGLEWIGVIWTSGVTDYNSALMGRVTISVDTSKNQFSLKLSSVTAADTAVYYCARDGDYDRYTHDYWGQGTLVTVSS
VL: DIVMTQSPDSLAVSLGERATINCRASKSVSTSGYSYMHWYQQKPGQPPKLLIYLASNLESGVPDRFSGSGSGTDFTLTISSLQAEDVAVYYCQHSRELPYTFGQGTKLEIK
[1]
  cytotoxicity on TROP2-positive NCI-H1975 cells (antibody complexed to secondary antibody-MMAF, cell titer glow assay): 30
[2]
  binding result: binds

B2: MYT11566 (WT sacituzumab variable regions) (antibody, human IgG1, V domains shown)
VH: QVQLQQSGSELKKPGASVKVSCKASGYTFTNYGMNWVKQAPGQGLKWMGWINTYTGEPTYTDDFKGRFAFSLDTSVSTAYLQISSLKADDTAVYFCARGGFGSSYWYFDVWGQGSLVTVSS
VL: DIQLTQSPSSLSASVGDRVSITCKASQDVSIAVAWYQQKPGKAPKLLIYSASYRYTGVPDRFSGSGSGTDFTLTISSLQPEDFAVYYCQQHYITPLTFGAGTKVEIK
notes: Human IgG1 heavy chain constant domain and Kappa light chain constant domain; also called Sacituzumab WT
[3]
  Kd: 0.6 nM
[4]
  Max MFI (@ pH 6.4)-H1975: 29500 MFI

B3: MYT13425 (antibody, human IgG1, V domains shown)
VH: B2 VH with D62H
VL: B2 VL with S30H, A51H, I93H
notes: also called sacituzumab HC-LC pairing variant; Sacituzumab pH variant
[3]
  Kd: 3.99 nM
[5]
  FOW H1975 (10 nM): 1.94 fold over parent antibody
[6]
  Cytotox Fold over datopotamab (FOD): 1.39 fold over datopotamab
[4]
  Max MFI (@ pH 6.4)-H1975: 11200 MFI

B4: MYT11635 (WT datopotamab variable regions) (antibody, human IgG1, V domains shown)
VH: QVQLVQSGAEVKKPGASVKVSCKASGYTFTTAGMQWVRQAPGQGLEWMGWINTHSGVPKYAEDFKGRVTISADTSTSTAYLQLSSLKSEDTAVYYCARSGFGSSYWYFDVWGQGTLVTVSS
VL: B2 VL with L4M, S20T, I31T, D60S, A100Q, V104L
notes: Human IgG1 heavy chain constant domain and Kappa light chain constant domain; also called Datopotamab WT
[3]
  Kd: 1.25 nM
[6]
  Cytotox Fold over datopotamab (FOD): 1 fold over datopotamab
[4]
  Max MFI (@ pH 6.4)-H1975: 25900 MFI

B5: MYT11616 (antibody, V domains shown)
VH: B2 VH
VL: B2 VL with A32H
notes: Sacituzumab variant, His at LCV position 32 (L1 09)
[7]
  binding result: binds

B6: MYT11619 (antibody, V domains shown)
VH: B2 VH
VL: B2 VL with S50H
notes: Sacituzumab variant, His at LCV position 50 (L2 01)
[7]
  binding result: binds

B7: MYT11679 (antibody, V domains shown)
VH: B4 VH
VL: B2 VL with L4M, S20T, S26H, I31T, D60S, A100Q, V104L
notes: IgG from supernatant; His at LCV position 26; also called datopotamab variant L1 03
[8]
  binding result: binds

B8: MYT11680 (antibody, V domains shown)
VH: B4 VH
VL: B2 VL with L4M, S20T, Q27H, I31T, D60S, A100Q, V104L
notes: IgG from supernatant; His at LCV position 27; also called datopotamab variant L1 04
[8]
  binding result: binds

B9: MYT11687 (antibody, V domains shown)
VH: B4 VH
VL: B2 VL with L4M, S20T, I31T, A34H, D60S, A100Q, V104L
notes: IgG from supernatant; His at LCV position 34; also called datopotamab variant L1 11
[9]
  binding result: binds

B10: MYT11688 (antibody, V domains shown)
VH: B4 VH
VL: B2 VL with L4M, S20T, I31T, S50H, D60S, A100Q, V104L
notes: IgG from supernatant; His at LCV position 50; also called datopotamab variant L2 01
[9]
  binding result: binds

B11: MYT12406 (antibody, V domains shown)
VH: B4 VH
VL: B2 VL with L4M, S20T, I31T, A51H, D60S, Q89H, Y92H, A100Q, V104L
notes: datopotamab VL 51, 89, 92 substituted
[10]
  binding result: no binding (tested: 50 nM)

B12: MYT12388 (antibody, V domains shown)
VH: B4 VH
VL: B2 VL with L4M, S20T, D28H, I31T, A51H, D60S, A100Q, V104L
notes: datopotamab VL 28, 51 substituted
[11]
  binding result: binds

B13: MYT12405 (antibody, V domains shown)
VH: B4 VH
VL: B2 VL with L4M, S20T, I31T, A51H, S52H, D60S, Y92H, A100Q, V104L
notes: datopotamab VL 51, 52, 92 substituted
[10]
  binding result: no binding (tested: 50 nM)

B14: MYT12407 (antibody, V domains shown)
VH: B4 VH
VL: B2 VL with L4M, S20T, I31T, S52H, D60S, Q89H, Y92H, A100Q, V104L
notes: datopotamab VL 52, 89, 92 substituted
[10]
  binding result: no binding (tested: 50 nM)

B15: MYT12408 (hu7E6SVG variant, HCV substitutions at 33, 34) (antibody, V domains shown)
VH: B1 VH with G33H, V34H, H106M
VL: B1 VL
[12]
  binding result: binds

B16: MYT12409 (hu7E6SVG variant, HCV substitutions at 33, 51) (antibody, V domains shown)
VH: B1 VH with G33H, I51H, H106M
VL: B1 VL
[12]
  binding result: binds

B17: MYT13250 (antibody, V domains shown)
VH: B2 VH with Y60H
VL: B2 VL with S52H, I93H
notes: Sacituzumab HC-LC pairing variant
[13]
  binding result: binds

B18: MYT13251 (antibody, V domains shown)
VH: B2 VH with D62H
VL: B2 VL with S52H, I93H
notes: as for B17
[13]
  binding result: binds
